Source: patent US20240174727A1, “LONG-ACTING NATRIURETIC PEPTIDES AND USES THEREOF” (Eli Lilly and Company, priority 2022, published 2024)

Tests used:
human NPRA = target: T1, human NPRA (human, UniProt P16066 33-1061); test: cell-based or functional assay
T1 sequence (looked up): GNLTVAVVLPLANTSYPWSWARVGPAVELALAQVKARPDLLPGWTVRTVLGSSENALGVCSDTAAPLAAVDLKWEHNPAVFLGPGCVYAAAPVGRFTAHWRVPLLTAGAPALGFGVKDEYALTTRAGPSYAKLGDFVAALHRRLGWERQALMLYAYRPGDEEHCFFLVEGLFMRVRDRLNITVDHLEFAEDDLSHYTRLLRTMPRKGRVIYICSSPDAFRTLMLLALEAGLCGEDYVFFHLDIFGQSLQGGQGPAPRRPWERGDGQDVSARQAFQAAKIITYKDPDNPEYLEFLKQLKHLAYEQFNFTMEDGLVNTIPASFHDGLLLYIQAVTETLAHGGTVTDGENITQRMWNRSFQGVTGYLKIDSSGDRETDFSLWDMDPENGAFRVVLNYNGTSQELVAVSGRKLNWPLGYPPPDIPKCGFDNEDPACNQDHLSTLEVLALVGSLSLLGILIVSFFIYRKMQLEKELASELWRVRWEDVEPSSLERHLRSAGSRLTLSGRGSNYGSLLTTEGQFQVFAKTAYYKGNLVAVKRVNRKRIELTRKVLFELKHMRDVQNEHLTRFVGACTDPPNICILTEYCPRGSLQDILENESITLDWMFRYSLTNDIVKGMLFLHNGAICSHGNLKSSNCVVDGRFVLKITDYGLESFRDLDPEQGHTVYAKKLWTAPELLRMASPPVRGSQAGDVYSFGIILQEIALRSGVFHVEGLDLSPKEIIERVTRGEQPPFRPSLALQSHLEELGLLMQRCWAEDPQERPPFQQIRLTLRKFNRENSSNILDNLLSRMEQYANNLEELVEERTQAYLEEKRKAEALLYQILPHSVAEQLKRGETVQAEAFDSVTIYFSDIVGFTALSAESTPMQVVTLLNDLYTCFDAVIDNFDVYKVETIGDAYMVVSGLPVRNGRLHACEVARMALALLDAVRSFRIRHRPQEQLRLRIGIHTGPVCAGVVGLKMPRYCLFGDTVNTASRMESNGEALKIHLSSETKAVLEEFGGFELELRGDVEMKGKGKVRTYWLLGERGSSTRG

rat NPRA = target: T2, rat NPRA (rat, UniProt P18910 29-1057); test: cell-based or functional assay
T2 sequence (looked up): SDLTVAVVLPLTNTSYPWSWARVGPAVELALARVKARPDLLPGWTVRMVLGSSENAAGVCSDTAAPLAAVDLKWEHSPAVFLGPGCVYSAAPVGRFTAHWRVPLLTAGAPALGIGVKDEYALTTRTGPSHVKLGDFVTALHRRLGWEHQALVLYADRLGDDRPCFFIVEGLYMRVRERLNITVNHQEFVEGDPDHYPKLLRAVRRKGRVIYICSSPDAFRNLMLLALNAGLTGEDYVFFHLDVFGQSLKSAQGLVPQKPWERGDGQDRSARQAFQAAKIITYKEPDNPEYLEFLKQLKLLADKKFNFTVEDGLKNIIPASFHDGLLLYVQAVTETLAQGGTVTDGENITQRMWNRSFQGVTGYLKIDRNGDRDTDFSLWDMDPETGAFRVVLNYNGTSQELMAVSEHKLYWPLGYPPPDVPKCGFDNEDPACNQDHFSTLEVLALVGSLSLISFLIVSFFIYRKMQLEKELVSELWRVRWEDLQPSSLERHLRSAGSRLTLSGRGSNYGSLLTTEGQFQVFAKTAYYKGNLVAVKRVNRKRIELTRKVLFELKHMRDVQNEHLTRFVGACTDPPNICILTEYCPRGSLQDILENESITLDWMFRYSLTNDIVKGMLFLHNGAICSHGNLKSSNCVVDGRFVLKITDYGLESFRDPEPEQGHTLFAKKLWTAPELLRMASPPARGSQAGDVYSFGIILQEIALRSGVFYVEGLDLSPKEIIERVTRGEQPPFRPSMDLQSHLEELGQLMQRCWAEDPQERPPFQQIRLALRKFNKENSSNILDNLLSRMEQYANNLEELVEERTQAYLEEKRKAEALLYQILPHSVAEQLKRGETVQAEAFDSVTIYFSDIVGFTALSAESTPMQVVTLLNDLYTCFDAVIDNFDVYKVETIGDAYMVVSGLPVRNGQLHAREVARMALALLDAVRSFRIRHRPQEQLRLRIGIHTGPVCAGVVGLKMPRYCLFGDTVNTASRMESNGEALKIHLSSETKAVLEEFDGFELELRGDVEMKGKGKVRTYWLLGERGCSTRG

Binder	cGMP Assay (EC50, pM) w/BSA, hNPRA (human NPRA)	cGMP Assay (EC50, pM) w/Casein, hNPRA (human NPRA)	cGMP Assay (EC50, pM) w/BSA, rNPRA (rat NPRA)	cGMP Assay (EC50, pM) w/Casein, rNPRA (rat NPRA)
SXRRSSCFGKRIDRIGHYSGLGCPSFRHGSGSPSSGAPPPSG (N-terminus acylated with HOOC-(CH2)18-CO-(γGlu)-; (AEEA)6 after EKEKEKG; 4Pal; thioacetal linkage between the two bracketed Cys; C-terminal amide) [HOOC-(CH2)18-CO-(γGlu)-EKEKEKG-(AEEA)6-S-4Pal-RRSS[CFGKRIDRIGHYSGLGC]PSFRHGSGSPSSGAPPPSG-NH2]	9170 pM	922 pM	200000 pM	6040 pM
EKXRSSCFGKRIDRIGHYSGLGCPSFRHGGKSSGAPPPS (N-terminus acylated with HOOC-(CH2)18-CO-(γGlu)-; PEG24 after EKEKEKG; βAla; thioacetal linkage between the two bracketed Cys; C-terminal amide) [HOOC-(CH2)18-CO-(γGlu)-EKEKEKG-PEG24-EK-βAla-RSS[CFGKRIDRIGHYSGLGC]PSFRHGGKSSGAPPPS-NH2]	3490 pM			
SXRRSSCFGKRIDRIGHQSGLGCPSFRHGGKSSGAPPPS (N-terminus acylated with HOOC-(CH2)18-CO-(γGlu)-; PEG24 after EKEKEKG; 4Pal; thioacetal linkage between the two bracketed Cys; C-terminal amide) [HOOC-(CH2)18-CO-(γGlu)-EKEKEKG-PEG24-S-4Pal-RRSS[CFGKRIDRIGHQSGLGC]PSFRHGGKSSGAPPPS-NH2]	2560 pM	488 pM	276000 pM	16800 pM
SXRRSSCFGKRIDRIGHYSGLGCPSFRHGGKSSGAPPPS (N-terminus acylated with HOOC-(CH2)18-CO-(γGlu)-; PEG24 after EKEKEKG; 4Pal; thioacetal linkage between the two bracketed Cys; C-terminal amide) [HOOC-(CH2)18-CO-(γGlu)-EKEKEKG-PEG24-S-4Pal-RRSS[CFGKRIDRIGHYSGLGC]PSFRHGGKSSGAPPPS-NH2]	2210 pM	580 pM	89100 pM	5320 pM
EKXRSSCFGKRIDRIGHYSGLGCPSFRHGSPSSGAPPPS (N-terminus acylated with HOOC-(CH2)18-CO-(γGlu)-; (AEEA)8 after EKEKEKG; βAla; thioacetal linkage between the two bracketed Cys; C-terminal amide) [HOOC-(CH2)18-CO-(γGlu)-EKEKEKG-(AEEA)8-EK-βAla-RSS[CFGKRIDRIGHYSGLGC]PSFRHGSPSSGAPPPS-NH2]		497 pM		11200 pM
EKXRSSCFGKRIDRIGHYSGLGCPSFRHGSPSSGAPPPS (N-terminus acylated with HOOC-(CH2)18-CO-(γGlu)-; PEG24 after EKEKEKG; βAla; thioacetal linkage between the two bracketed Cys; C-terminal amide) [HOOC-(CH2)18-CO-(γGlu)-EKEKEKG-PEG24-EK-βAla-RSS[CFGKRIDRIGHYSGLGC]PSFRHGSPSSGAPPPS-NH2]	4330 pM	741 pM	187000 pM	9630 pM
SXRRSSCFGKRIDRIGHYSGLGCPSFRHGGKSSGAPPPS (N-terminus acylated with HOOC-(CH2)18-CO-(γGlu)-; (AEEA)6 after EKEKEKG; 4Pal; thioacetal linkage between the two bracketed Cys; C-terminal amide) [HOOC-(CH2)18-CO-(γGlu)-EKEKEKG-(AEEA)6-S-4Pal-RRSS[CFGKRIDRIGHYSGLGC]PSFRHGGKSSGAPPPS-NH2]	4470 pM	527 pM	312000 pM	2630 pM
EKXRSSCFGKRIDRIGHQSGLGCPSFRHGSPSSGAPPPS (N-terminus acylated with HOOC-(CH2)18-CO-(γGlu)-; (AEEA)6 after EKEKEKG; βAla; thioacetal linkage between the two bracketed Cys; C-terminal amide) [HOOC-(CH2)18-CO-(γGlu)-EKEKEKG-(AEEA)6-EK-βAla-RSS[CFGKRIDRIGHQSGLGC]PSFRHGSPSSGAPPPS-NH2]	12800 pM	493 pM	623000 pM	17900 pM
